From publication PMC4466140, “Evolution of the SH3 Domain Specificity Landscape in Yeasts” (PLoS ONE, 2015)

Experiments:
Experiment in all cases: peptide or protein array; SPOT: 15-mer peptides on cellulose (CAPE) membrane; GST-SH3 domains at 10 μg/ml overnight at 4°C in blocking buffer (TBS, 50 mM Tris/HCl pH 7.6, 150 mM NaCl, Blocking Buffer, 0.15 M sucrose); detected with anti-GST antibody and HRP conjugate
Conditions in all cases: both partners purified
[1] = biological target: T1, GST-tagged C. albicans Rvs167 SH3 domain (C. albicans, UniProt Q59LF3 382-440)
T1 construct: Rvs167 of Candida albicans, SH3 domain; also called CaRvs167; source: E. coli BL21(DE3), purified (glutathione Sepharose 4B); not shown: GST, N-terminal, kept
T1 sequence: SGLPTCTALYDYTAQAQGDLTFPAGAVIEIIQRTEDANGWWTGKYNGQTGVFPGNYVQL

[2] = biological target: T2, GST-tagged S. cerevisiae Rvs167 SH3 domain (S. cerevisiae, UniProt P39743 421-482)
T2 construct: Rvs167, S. cerevisiae, SH3 domain; also called ScRvs167; source: E. coli BL21(DE3), purified (glutathione Sepharose 4B); not shown: GST, N-terminal, kept

[3] = biological target: T3, GST-tagged S. pombe Rvs167 (Hob1) SH3 domain (S. pombe, UniProt O74352 407-466)
T3 construct: Rvs167 homolog of S. pombe, called Hob1, SH3 domain; also called SpRvs167; source: E. coli BL21(DE3), purified (glutathione Sepharose 4B); not shown: GST, N-terminal, kept
T3 sequence (looked up): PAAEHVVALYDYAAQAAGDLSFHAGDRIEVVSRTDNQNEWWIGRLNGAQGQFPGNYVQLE

Measured: binding result

T2 sequence (P39743 421-482): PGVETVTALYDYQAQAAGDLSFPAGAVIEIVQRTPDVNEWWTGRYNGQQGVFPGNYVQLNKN

B1: Type II peptide #66 (SPOT membrane) (peptide)
peptide: SSSSTPPTLPPRRIE
notes: 15-mer of the SH3-SPOT library mined from the S. cerevisiae proteome; In the SPOT library all cysteines were replaced by serines; source: synthetic peptide, SPOT synthesis on cellulose (CAPE) membrane
binds: all assays above
